Results published in US20230128688A1, “DIRECTED CONJUGATION TECHNOLOGIES” (KLEO PHARMACEUTICALS, INC., priority 2019, published 2023).

Molecular target: T cell receptor (TCR)/CD3 on effector Jurkat T cells
Test: cell-based or functional assay

Substance: III-1 (CD20×CD3; rituximab×SP34 scFv) (bispecific antibody)
- EC50 of T cell activation (NFAT-RE luciferase luminescence in Jurkat effector cells), effector only condition: > 10000 pM
- EC50 of T cell activation (NFAT-RE luciferase luminescence in Jurkat effector cells), effector+target (Daudi) condition: 100 pM
